Experimental data as given in patent US6830925.

T1: Calmodulin Dependent Protein Kinase Substrate
T1 chain: PLSRTLSVSS

T2: Syntide 2
T2 chain: PLARTLSVAGLPGKK

T3: CREBtide
T3 chain: KRREILSRRPSYR

B1: Xpress-CaMK-X1 fusion protein (CaMK-X1 coding sequence fused to the Xpress epitope, stably expressed in HEK293 cells) (protein)
chain: MGRKEEDDCSSWKKQTTNIRKTFIFMEVLGSGAFSEVFLVKQRLTGKLFALKCIKKSPAFRDSSLENEIAVLKKIKHENIVTLEDIYESTTHYYLVMQLVSGGELFDRILERGVYTEKDASLVIQQVLSAVKYLHENGIVHRDLKPENLLYLTPEENSKIMITDFGLSKMEQNGIMSTACGTPGYVAPEVLAQKPYSKAVDCWSIGVITYILLCGYPPFYEETESKLFEKIKEGYYEFESPFWDDISESAKDFICHLLEKDPNERYTCEKALSHPWIDGNTALHRDIYPSVSLQIQKNFAKSKWRQAFNAAAVVHHMRKLHMNLHSPGVRPEVENRPPETQASETSRPSSPEITITEAPVLDHSVALPALTQLPCQHGRRPTAPGGRSLNCLVNGSLHISSSLVPMHQGSLAAGPCGCCSSCLNIGSKGKSSYCSEPTLLKKANKKQNFKSEVMVPVKASGSSHCRAGQTGVCLIM
B2: Histidine tagged CaMK-X1 expressed in Sf9 cells and purified with a Ni2+ affinity column (protein)
chain: MGRKEEDDCSSWKKQTTNIRKTFIFMEVLGSGAFSEVFLVKQRLTGKLFALKCIKKSPAFRDSSLENEIAVLKKIKHENIVTLEDIYESTTHYYLVMQLVSGGELFDRILERGVYTEKDASLVIQQVLSAVKYLHENGIVHRDLKPENLLYLTPEENSKIMITDFGLSKMEQNGIMSTACGTPGYVAPEVLAQKPYSKAVDCWSIGVITYILLCGYPPFYEETESKLFEKIKEGYYEFESPFWDDISESAKDFICHLLEKDPNERYTCEKALSHPWIDGNTALHRDIYPSVSLQIQKNFAKSKWRQAFNAAAVVHHMRKLHMNLHSPGVRPEVENRPPETQASETSRPSSPEITITEAPVLDHSVALPALTQLPCQHGRRPTAPGGRSLNCLVNGSLHISSSLVPMHQGSLAAGPCGCCSSCLNIGSKGKSSYCSEPTLLKKANKKQNFKSEVMVPVKASGSSHCRAGQTGVCLIM

Tests used:
[1] = molecular target: T1, Calmodulin Dependent Protein Kinase …
Syntide 2 = molecular target: T2, Syntide 2
[2] = molecular target: calmodulin (CalBiochem), P0DP23
CREBtide = molecular target: T3, CREBtide

Row | Protein | in vitro kinase assay (32P incorporation) with immunoprecipitated CaMK-X1 [1] | in vitro kinase assay (32P incorporation) with immunoprecipitated CaMK-X1 (Syntide 2) | in vitro kinase assay (32P incorporation into peptides) with and without calmodulin [2] | in vitro kinase assay (32P incorporation) with immunoprecipitated CaMK-X1 (CREBtide) | in vitro kinase assay (32P incorporation) with Ni2+ purified CaMK-X1 [1] | in vitro kinase assay (32P incorporation) with Ni2+ purified CaMK-X1 (Syntide 2) | in vitro kinase assay (rate of peptide phosphorylation) with and without Ca2+ and calmodulin [2] | in vitro kinase assay (32P incorporation) with Ni2+ purified CaMK-X1 (CREBtide)
1 | B1 | In contrast, CaMK-X1 could not phosphorylate control peptide | CaMK-X1 phosphorylated CREBtide and Syntide 2 in vitro | The degree of phosphorylation is augmented in the presence of calmodulin | CaMK-X1 phosphorylated CREBtide and Syntide 2 in vitro | – | – | – | –
2 | B2 | – | – | – | – | Syntide 2 and CREBtide had higher incorporation of ^32P than the control peptide | CREBtide and Syntide 2 are phosphorylated by the purified CaMK-X1 | The rate of phosphorylation is increased in the presence of Ca^2+ and calmodulin | CREBtide and Syntide 2 are phosphorylated by the purified CaMK-X1
